Data on 45 molecules can be found in patent US20070293656A1, “COLLAGEN BINDING PEPTIDES” (Epix Pharmaceuticals, Inc., priority 2005, published 2007).

One assay has as its target T1, human collagen type I (Homo sapiens, UniProt P02452+P08123).
T1 construct: Acid soluble human collagen extracted from placenta; purchased Sigma C7774 (lot #083K375); host or cells: human placenta
Description: Dried collagen assay (DCA): percent binding to dried human collagen. The note with it: 5 μM peptide in PBS, pH 7.4, 2 hours at room temperature. Here is the method:
Acid soluble human collagen extracted from placenta (Sigma, cat #C7774, lot #083K375) is dissolved in 15 mM HCl (3.5 mg/ml) by vortexing and gently shaking for 3-4 hours at 4° C. The acid soluble collagen is […] against PBS, pH 7.4 (three buffer exchanges are used). The […] protein concentration is determined by the BCA method (Pierce, Cat #23225) using bovine collagen (Vitrogen, cat #FXP-019) as a reference standard. Percent gelation (fibril formation) of the collagen is determined by incubating 10 μM collagen (3.3 mg/ml) at 37° C. for 6 hours. A typical percent gelation is 60%.
(§1) An additional 90 μL is reserved in a HPLC glass vial as a measure of the total concentration.

The target in another assay is T2, rat collagen type I (Rattus norvegicus, UniProt P02454+P02466).
T2 construct: Rat collagen (acid soluble, type I, rat tail); purchased Upstate USA, Inc 08-115; host or cells: rat tail
Briefly: Dried collagen assay (DCA): percent binding to dried rat collagen. Conditions: 5 μM peptide in PBS, pH 7.4, 2 hours at room temperature. The procedure:
Rat collagen (acid soluble, type I, rat tail, Upstate USA, Inc, cat #08-115) is dialyzed against 10 mM Phosphate (NaH2PO4), pH 4.2 with three changes of the dialysis buffer. For the final assay, a 1:10 volume of 10×PBS (100 mM NaH2PO4, 1.5 M NaCl pH 7.4) is added to the collagen solution (final 1×PBS) and incubated at 37° C. for 2 hours. The gelation is typically 90%.
as §1

Assay [1] has as its target rat collagen (acid soluble, type I, rat tail, Upstate 08-115) (rat) (UniProt P02454). Briefly: dried collagen assay.
The target of assay [2] is human collagen type I (acid soluble, extracted from placenta, Sigma C7774) (human) (UniProt P02452). Briefly: dried collagen assay.
Assay [3] addresses T3, human collagen type I (acid soluble, extracted from placenta, Sigma C7774) (human, UniProt P02452 162-1218; P08123 80-1119).
T3 construct: gelled and dried as a fibril film in the assay; also called dried human collagen; h-Collagen
Briefly: dried collagen assay. The procedure:
as §1

Bridge positions count the residues as written; N and C are the ends. Square brackets hold non-standard residues; d marks the D form. Primed or numbered codes have the meaning given here. Side chains are listed from the residue outwards. Ends that are not written are not given here. * marks the point of attachment. Tyr(3-I) = N[C@@H](Cc1ccc(O)c(I)c1)C(=O)O; Gd^T = not defined here; Gd^T″ = GdDTPA-thiourea; Cbz = O=C(OCc1ccccc1)*

rat collagen (acid soluble, type I, rat tail, Upstate 08-115) (rat), sequence (P02454 152-1207 limits assumed, chain 1 of 2): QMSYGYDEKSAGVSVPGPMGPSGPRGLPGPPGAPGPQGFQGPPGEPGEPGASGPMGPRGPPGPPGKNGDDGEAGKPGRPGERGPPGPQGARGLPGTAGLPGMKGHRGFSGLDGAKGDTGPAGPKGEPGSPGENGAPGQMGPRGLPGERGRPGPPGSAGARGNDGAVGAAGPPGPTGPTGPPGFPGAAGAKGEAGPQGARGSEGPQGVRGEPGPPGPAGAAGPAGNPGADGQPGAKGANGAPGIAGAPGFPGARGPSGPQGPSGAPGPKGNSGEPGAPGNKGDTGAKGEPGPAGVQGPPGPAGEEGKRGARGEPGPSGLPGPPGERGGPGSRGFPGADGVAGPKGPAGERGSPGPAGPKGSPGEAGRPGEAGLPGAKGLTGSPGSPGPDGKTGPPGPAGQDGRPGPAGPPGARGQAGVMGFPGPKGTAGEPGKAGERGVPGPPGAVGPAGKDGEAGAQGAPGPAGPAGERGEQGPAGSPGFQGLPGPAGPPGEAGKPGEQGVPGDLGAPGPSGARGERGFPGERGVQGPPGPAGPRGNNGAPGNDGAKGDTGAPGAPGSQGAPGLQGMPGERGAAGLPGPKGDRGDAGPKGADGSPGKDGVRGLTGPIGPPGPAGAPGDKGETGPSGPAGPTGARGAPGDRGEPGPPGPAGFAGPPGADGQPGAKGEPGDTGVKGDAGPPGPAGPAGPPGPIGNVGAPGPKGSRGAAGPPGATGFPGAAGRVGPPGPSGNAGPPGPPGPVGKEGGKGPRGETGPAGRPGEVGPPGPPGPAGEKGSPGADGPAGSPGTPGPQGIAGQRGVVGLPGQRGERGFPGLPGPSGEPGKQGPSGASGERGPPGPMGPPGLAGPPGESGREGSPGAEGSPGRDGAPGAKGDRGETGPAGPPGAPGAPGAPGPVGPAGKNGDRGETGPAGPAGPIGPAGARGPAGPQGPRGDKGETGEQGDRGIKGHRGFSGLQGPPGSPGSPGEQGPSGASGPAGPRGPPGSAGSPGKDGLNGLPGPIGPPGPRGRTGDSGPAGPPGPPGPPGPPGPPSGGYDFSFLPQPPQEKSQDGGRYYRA
rat collagen (acid soluble, type I, rat tail, Upstate 08-115) (rat), sequence (P02466 86-1125 limits assumed, chain 2 of 2, further chain): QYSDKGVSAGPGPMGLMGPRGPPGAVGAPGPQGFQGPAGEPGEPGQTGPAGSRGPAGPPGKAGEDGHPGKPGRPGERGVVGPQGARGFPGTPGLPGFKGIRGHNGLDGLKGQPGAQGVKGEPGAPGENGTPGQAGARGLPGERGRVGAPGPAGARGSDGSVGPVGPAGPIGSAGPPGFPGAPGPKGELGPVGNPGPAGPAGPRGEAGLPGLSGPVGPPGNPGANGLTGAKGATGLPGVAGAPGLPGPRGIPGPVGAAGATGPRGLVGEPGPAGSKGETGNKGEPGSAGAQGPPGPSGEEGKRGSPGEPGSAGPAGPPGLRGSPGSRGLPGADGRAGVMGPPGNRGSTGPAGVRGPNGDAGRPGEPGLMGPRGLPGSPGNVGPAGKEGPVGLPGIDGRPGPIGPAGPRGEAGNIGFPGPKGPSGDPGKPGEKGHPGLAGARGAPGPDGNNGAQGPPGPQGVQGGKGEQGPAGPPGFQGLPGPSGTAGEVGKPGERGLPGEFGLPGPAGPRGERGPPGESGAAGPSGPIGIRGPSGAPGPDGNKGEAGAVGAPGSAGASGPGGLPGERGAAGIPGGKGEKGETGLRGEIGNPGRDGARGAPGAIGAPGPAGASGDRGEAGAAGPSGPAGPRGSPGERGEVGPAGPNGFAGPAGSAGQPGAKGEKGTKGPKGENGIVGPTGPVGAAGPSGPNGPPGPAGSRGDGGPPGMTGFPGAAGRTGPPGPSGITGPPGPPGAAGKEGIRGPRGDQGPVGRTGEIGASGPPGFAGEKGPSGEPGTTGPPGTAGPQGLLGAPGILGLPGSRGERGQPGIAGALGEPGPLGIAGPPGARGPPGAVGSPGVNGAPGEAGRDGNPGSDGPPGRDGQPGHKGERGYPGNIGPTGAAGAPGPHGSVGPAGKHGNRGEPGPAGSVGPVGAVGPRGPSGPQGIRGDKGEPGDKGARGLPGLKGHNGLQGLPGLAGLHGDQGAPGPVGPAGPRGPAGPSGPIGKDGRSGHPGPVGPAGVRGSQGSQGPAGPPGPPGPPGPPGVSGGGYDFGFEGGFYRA
T2 sequence (P02454 152-1207 limits assumed): as the sequence (P02454 152-1207 limits assumed, chain 1 of 2) above
T2 sequence (P02466 86-1125 limits assumed): as the sequence (P02466 86-1125 limits assumed, chain 2 of 2, further chain) above
human collagen type I (acid soluble, extracted from placenta, Sigma C7774) (human), sequence (P02452 162-1218 limits assumed, chain 1 of 2): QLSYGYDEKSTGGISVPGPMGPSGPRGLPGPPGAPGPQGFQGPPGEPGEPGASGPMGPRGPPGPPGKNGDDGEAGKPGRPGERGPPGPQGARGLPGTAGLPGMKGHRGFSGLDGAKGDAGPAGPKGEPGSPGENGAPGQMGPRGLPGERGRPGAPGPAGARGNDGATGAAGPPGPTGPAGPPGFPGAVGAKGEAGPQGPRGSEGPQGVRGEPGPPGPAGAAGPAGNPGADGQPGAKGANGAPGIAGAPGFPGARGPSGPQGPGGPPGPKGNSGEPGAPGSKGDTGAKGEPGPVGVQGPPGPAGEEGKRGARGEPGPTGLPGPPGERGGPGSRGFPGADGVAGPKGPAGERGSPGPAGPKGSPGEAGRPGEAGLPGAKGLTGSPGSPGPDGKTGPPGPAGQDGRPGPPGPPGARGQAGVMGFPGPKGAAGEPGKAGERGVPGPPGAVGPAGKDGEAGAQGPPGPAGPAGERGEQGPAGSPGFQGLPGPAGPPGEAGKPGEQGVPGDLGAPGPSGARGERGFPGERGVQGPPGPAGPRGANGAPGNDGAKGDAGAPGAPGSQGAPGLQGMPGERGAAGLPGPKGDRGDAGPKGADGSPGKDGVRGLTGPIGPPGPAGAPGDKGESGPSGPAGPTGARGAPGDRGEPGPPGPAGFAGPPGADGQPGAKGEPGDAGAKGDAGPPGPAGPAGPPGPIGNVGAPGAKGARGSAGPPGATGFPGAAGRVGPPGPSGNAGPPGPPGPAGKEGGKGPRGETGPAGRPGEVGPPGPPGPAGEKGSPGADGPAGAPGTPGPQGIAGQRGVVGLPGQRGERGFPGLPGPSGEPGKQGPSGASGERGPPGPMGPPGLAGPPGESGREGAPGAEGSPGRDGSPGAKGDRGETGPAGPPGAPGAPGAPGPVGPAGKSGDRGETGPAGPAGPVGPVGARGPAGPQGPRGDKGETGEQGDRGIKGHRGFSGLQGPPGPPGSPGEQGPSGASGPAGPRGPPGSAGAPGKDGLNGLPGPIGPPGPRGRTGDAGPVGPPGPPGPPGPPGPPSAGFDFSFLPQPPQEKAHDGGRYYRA
human collagen type I (acid soluble, extracted from placenta, Sigma C7774) (human), sequence (P08123 80-1119 limits assumed, chain 2 of 2, further chain): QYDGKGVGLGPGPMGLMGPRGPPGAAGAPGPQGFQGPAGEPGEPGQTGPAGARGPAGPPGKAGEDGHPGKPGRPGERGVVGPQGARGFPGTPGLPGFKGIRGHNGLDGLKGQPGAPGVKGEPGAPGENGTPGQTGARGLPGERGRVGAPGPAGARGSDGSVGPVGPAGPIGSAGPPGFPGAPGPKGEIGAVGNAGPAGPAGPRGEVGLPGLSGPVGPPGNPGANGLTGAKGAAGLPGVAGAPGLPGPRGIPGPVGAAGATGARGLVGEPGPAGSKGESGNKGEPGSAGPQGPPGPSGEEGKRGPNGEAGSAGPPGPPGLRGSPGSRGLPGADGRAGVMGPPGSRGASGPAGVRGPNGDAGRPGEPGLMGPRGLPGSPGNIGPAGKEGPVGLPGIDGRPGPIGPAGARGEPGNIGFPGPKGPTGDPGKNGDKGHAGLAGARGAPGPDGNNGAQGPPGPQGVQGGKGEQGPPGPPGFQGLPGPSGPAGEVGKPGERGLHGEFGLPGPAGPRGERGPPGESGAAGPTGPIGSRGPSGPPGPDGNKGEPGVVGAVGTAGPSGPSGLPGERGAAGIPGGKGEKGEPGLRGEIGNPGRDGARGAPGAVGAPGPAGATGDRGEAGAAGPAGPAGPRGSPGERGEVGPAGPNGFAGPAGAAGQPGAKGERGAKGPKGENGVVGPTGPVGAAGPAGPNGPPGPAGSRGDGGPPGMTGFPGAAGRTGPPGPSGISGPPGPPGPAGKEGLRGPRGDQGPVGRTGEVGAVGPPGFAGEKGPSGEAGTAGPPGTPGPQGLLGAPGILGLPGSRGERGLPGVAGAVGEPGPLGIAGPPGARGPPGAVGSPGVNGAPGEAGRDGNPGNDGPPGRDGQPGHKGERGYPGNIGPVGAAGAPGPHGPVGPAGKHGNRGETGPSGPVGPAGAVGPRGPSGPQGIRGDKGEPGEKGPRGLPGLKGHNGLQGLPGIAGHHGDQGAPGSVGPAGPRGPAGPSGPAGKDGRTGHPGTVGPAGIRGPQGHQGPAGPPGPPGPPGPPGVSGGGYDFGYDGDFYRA
T1 sequence (P02452 162-1218 limits assumed): as the sequence (P02452 162-1218 limits assumed, chain 1 of 2) above
T1 sequence (P08123 80-1119 limits assumed): as the sequence (P08123 80-1119 limits assumed, chain 2 of 2, further chain) above
T3 sequence (P02452 162-1218 limits assumed, chain 1 of 2): as the sequence (P02452 162-1218 limits assumed, chain 1 of 2) above
T3 sequence (P08123 80-1119 limits assumed, chain 2 of 2): as the sequence (P08123 80-1119 limits assumed, chain 2 of 2, further chain) above

In the case of “130 (WWACQKGRHDWEKCRWL; disulfide 4-14 (inferred)) [compound 130]”, the “Dried Human Collagen Binding” value in the assay with human collagen type I worked out at 32%. Turning to 38 (GWSCHGDAADWPCQWS) [compound 38], the “Dried Human Collagen Binding” value in the assay with human collagen type I turned out to be 6%. As to “163 ([dY][dH][dA][dC][dY][dQ][dA]G[dC][dW][dI][dW]; disulfide 4-9 (inferred)) [compound 163]”, the “% Collagen Binding Dried Rat” value with rat collagen type I is on record as 53%.

Consider “176 (QWTCSGDEYTWHC[dN]YE; disulfide 4-13 (inferred)) [compound 176]”, for which, in the assay with human collagen type I, the “% Collagen Binding Dried Human” value stood at 2%. Besides, in the assay with rat collagen type I, the “% Collagen Binding Dried Rat” value is given as 2%. Take “165 (Q[dW]TCSGDEYTWHCNYE; disulfide 4-13 (inferred)) [compound 165]”: in the assay with human collagen type I, the “% Collagen Binding Dried Human” value came out at 2%. In addition, the “% Collagen Binding Dried Rat” value with rat collagen type I is 4%.

For the molecule 2 (WGWCEWAQNNCWNY) [compound 2], the “Dried Human Collagen Binding” value with human collagen type I was 14%.

“169 (QWTCSG[dD]EYTWHCNYE; disulfide 4-13 (inferred)) [compound 169]”: the “% Collagen Binding Dried Rat” value in the assay with rat collagen type I stood at 4%. As for 37 (LWNCHGTDANWKCVLN) [compound 37], in the assay with human collagen type I, the “Dried Human Collagen Binding” value stood at 7%. For the molecule “171 (QWTCSGDE[dY]TWHCNYE; disulfide 4-13 (inferred)) [compound 171]”, the “% Collagen Binding Dried Rat” value with rat collagen type I was 6%. With “113 (FSECVWVNAYQCEYF; disulfide 4-12 (inferred)) [compound 113]”, in the assay with human collagen type I, the “Dried Human Collagen Binding” value was 3%. As for “173 (QWTCSGDEYT[dW]HCNYE; disulfide 4-13 (inferred)) [compound 173]”, the “% Collagen Binding Dried Human” value with human collagen type I was found to be 5%. Also, the “% Collagen Binding Dried Rat” value in the assay with rat collagen type I is 4%. As to “159 (YHACYQAG[dC]WIW; disulfide 4-9 (inferred)) [compound 159]”, the “% Collagen Binding Dried Human” value with human collagen type I was 7%. As to “167 (QWT[dC]SGDEYTWHCNYE; disulfide 4-13 (inferred)) [compound 167]”, the “% Collagen Binding Dried Human” value in the assay with human collagen type I amounted to 4%. “166 (QW[dT]CSGDEYTWHCNYE; disulfide 4-13 (inferred)) [compound 166]”: the “% Collagen Binding Dried Human” value with human collagen type I is reported as 2%. Further, the “% Collagen Binding Dried Rat” value with rat collagen type I was found to be 3%.

As to “137 (YHACYQAGCWAW; disulfide 4-9 (inferred)) [compound 137]”, in the assay with rat collagen type I, the “% Collagen Binding Dried Rat” value was 7%.

On to “174 (QWTCSGDEYTW[dH]CNYE; disulfide 4-13 (inferred)) [compound 174]”, for which the “% Collagen Binding Dried Human” value in the assay with human collagen type I stood at 5%.

Take “175 (QWTCSGDEYTWH[dC]NYE; disulfide 4-13 (inferred)) [compound 175]”: the “% Collagen Binding Dried Human” value in the assay with human collagen type I is listed as 2%. Also, the “% Collagen Binding Dried Rat” value in the assay with rat collagen type I is listed as 2%.

Consider “112 (AKACSVHDEFGCLIS; disulfide 4-12 (inferred)) [compound 112]”, for which the “Dried Human Collagen Binding” value with human collagen type I came out at 9%. As to “147 (QWTCSGDEYTAHCNYE; disulfide 4-13 (inferred)) [compound 147]”, in the assay with human collagen type I, the “% Collagen Binding Dried Human” value amounted to 5%. With 65 (KWECVHTKGEWYCETK) [compound 65], the “Dried Human Collagen Binding” value with human collagen type I is given as 7%. On the same count and under the same terms, the value for 36 (SWSCGGDHNAWKCQYS) [compound 36] was 7%; that for 39 (GWQCSGDASVWNCDWI) [compound 39] was 6%.

“142 (QWTCSADEYTWHCNYE; disulfide 4-13 (inferred)) [compound 142]”: the “% Collagen Binding Dried Rat” value in the assay with rat collagen type I was 6%.

Regarding 3 (PWWCHEMPSMCFGF) [compound 3], in the assay with human collagen type I, the “Dried Human Collagen Binding” value is reported as 2%. On to {Gd^T″}-DWTCSGDEYYWHCNYE (disulfide 4-13 (inferred)) [Comp ID 834], for which the values for the % bound in assay [1] and in assay [2] were 9% and 22%, respectively. In turn, GQWHCTTRFPHHXCLYG (not fully specified; Gd^T-GQWHCTTRFPHH-1-nal-CLYG) [Comp ID 904] had a % bound in assay [1] of 3%. In the case of {Gd^T″}-GQWTCSGDEYTWACNYE (disulfide 5-14 (inferred)) [Comp ID 833], the % bound is 4% in assay [1] and 13% in assay [2]. As for DWTCSGDEYTWYCNYE (not fully specified; Gd^T-DWTCSGDEYTWYCNYE) [Comp ID 842], the % bound in assay [1] worked out at 9%; in assay [2], 23%. The like results for {Gd^T″}-GQWTCSGDEYAWHCNY[dE] (disulfide 5-14 (inferred)) [Comp ID 832] were, in that order, 4% and 12%.

As to GQWHCTTDFPHHYCLYG (not fully specified; Gd^T-GQWHCTTD-F(3,4-OMe)-PHHYCLYG) [Comp ID 893], the values for the % bound in assay [1] and in assay [2] were 2% and 4%, respectively. As for {Gd^T}-DWTCS[dL]DEYTWHCNYE (disulfide 4-13 (inferred); not fully specified (C-terminus); reading uncertain) [Comp ID 847], the values for the % bound in assay [1] and in assay [2] were 7% and 16%, respectively. The like results for GQWACSGDEYTWHCNYE (not fully specified; Gd^T-GQWACSGDEYTWHCNYE) [Comp ID 840] were, in that order, 3% and 15%. On to YHACYQAGCYIY (disulfide 4-9 (inferred)) [SEQ ID NO: 108], for which the results for the % bound in assay [1] and in assay [2] were 12% and 5%, respectively.

B1: Comp ID 835 (peptide)
peptide: {Gd^T}-DWTCS[dA]DEYTWHCNYE
modifications: disulfide 4-13 (inferred); not fully specified (C-terminus); printed as Gd^T-DWTCSaDEYTWHCNYE; reading uncertain
Consider B1, for which the % bound stood at 9% in assay [1] and 17% in assay [2]. Consider {Gd^T}-DWTCSGDE[Tyr(3-I)]TWHCNYE (disulfide 4-13 (inferred); not fully specified (C-terminus); reading uncertain) [Comp ID 846], for which the % bound in assay [1] was 9%.

B2: Comp ID 940 (peptide)
peptide: Cbz-GQWHCTK(Gd^T″)RFPHHYCLYG
modifications: disulfide 5-14 (inferred); not fully specified (C-terminus); printed as cbz-GQWHCT-K(Gd^T)-RFPHHYCLYG
In assay [1], B2 returned a % bound of 8%.

As to YHACYQAGCYIW (disulfide 4-9 (inferred)) [SEQ ID NO: 107], the “% bound” value is 9% in assay [3] and 6% in assay [1]. In the case of DWTCSGDEYTWHCNYE (not fully specified; Gd^T-DWTCSGDEYTWHCNYE) [Comp ID 848], the % bound in assay [1] was 9%.

B3: Comp ID 966 (peptide)
peptide: {Gd^T″}-GK([Gly-Gd^T″])WHCTTLFPHHVCLYG
modifications: disulfide 5-14 (inferred); not fully specified (C-terminus); printed as Gd^T-G-K(G.Gd^T)-WHCTTLFPHHVCLYG
In the case of B3, the % bound in assay [1] is 8%.

For the molecule GQWHCTTRFPHHXCLYG (not fully specified; Gd^T-GQWHCTTRFPHH-bip-CLYG) [Comp ID 903], the % bound in assay [1] is 5%; in assay [2], 3%. For the molecule GQWHCTTRFPHHFCLYG (not fully specified; Gd^T-GQWHCTTRFPHHfCLYG) [Comp ID 901], the % bound in assay [1] and in assay [2] was 2% each time. In the case of GQWHCTTLFPHHYCLYG (not fully specified; Gd^T-GQWHCTTLFPHHyCLYG) [Comp ID 907], the values for the % bound in assay [1] and in assay [2] were 1% and 6%, respectively.

B4: Comp ID 836 (peptide)
peptide: {Gd^T}-DWTCS[dS]DEYTWHCNYE
modifications: disulfide 4-13 (inferred); not fully specified (C-terminus); printed as Gd^T-DWTCSsDEYTWHCNYE; reading uncertain
As to B4, the values for the % bound in assay [1] and in assay [2] were 8% and 13%, respectively.

Consider {Gd^T″}-GAWTCSGDEYTWHCNYE (disulfide 5-14 (inferred)) [Comp ID 830], for which the % bound turned out to be 11% in assay [1] and 26% in assay [2]. Consider GQWHCTTDFPHHYCLYG (not fully specified; Gd^T-GQWHCTTD-F(4-CN)-PHHYCLYG) [Comp ID 883], for which the % bound in assay [1] was 2%; in assay [2], 8%.
